18 sequences from the supplement of paper PMC12764529 can be followed below.

Series [1] can be described thus: folding stability dG unfold from trypsin proteolysis; higher = more stable. In outline: (§1)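 Only designs with AlphaFold2 dimer inter-PAE above 15 were retained; each was a mini-protein under 80 residues with no cysteine, in a PA-tagged cDNA display construct. After digestion with trypsin and chymotrypsin and sequencing, K50 was inferred by Bayesian fitting of counts, and unfolding free energy was derived per protease or combined against a sequence-predicted unfolded-state K50 and a shared folded-state K50.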

Series [2] is described as follows: folding stability dG unfold from chymotrypsin proteolysis; higher = more stable. Summed up:
as §1

A short description of series [3]: folding stability dG unfold (combined trypsin and chymotrypsin); higher = more stable. Summed up:
as §1

± gives the half width of the 95% confidence interval.

Regarding “SAGEKKLTEEEIKKLVEELLKKLKPGEKEKVTLEIELTLEDGRKVKIRITVEVKDGKLVVKIEVEELPSAGG [r19_220_TrROS_Hall]”, the “folding stability dG unfold” value in series [1] was determined as 3.65 ± 0.27 kcal/mol; in series [2], 3.64 ± 0.52 kcal/mol; in series [3], 3.68 ± 0.46 kcal/mol.

On to “SAGELKITIAVFRPVEKDENGKEVKVELVEVKTITISKEDLTEEEILKLAEELKKKFPNTVILVTIEPSAGG [r19_369_TrROS_Hall]”, for which the entries for the “folding stability dG unfold” value in series [1], in series [2] and in series [3] were 2.59 ± 0.23 kcal/mol, 2.93 ± 0.19 kcal/mol and 2.91 ± 0.19 kcal/mol, respectively.

For “SAGELKPGQIVVRTIEIDLPEEDEELREAIERGELIELELEDGSRVLMRVERKDGKLRITEVVILPRPESAG [r5_223_TrROS_Hall]”, the entries for the “folding stability dG unfold” value in series [1], in series [2] and in series [3] were 1.66 ± 0.043 kcal/mol, 3.16 ± 0.029 kcal/mol and 2.73 ± 0.062 kcal/mol, respectively.

With “SAGEPEKVTITLVDEETGVVITIEIDKETKKITITVESEEERERARELAERLAKELEEAGIKVEILPPSAGG [r19_354_TrROS_Hall]”, the “folding stability dG unfold” value in series [1] came to 2.91 ± 0.14 kcal/mol; in series [2], 2.26 ± 0.18 kcal/mol; in series [3], 2.73 ± 0.16 kcal/mol.

In the case of “SAGEVELKIVLPKEEIEKILEALRKLAEEAGLEVEVEKIEKKEDGYYVITVTVKFKETEKEIKIEIIIPSAG [r5_41_TrROS_Hall]”, the “folding stability dG unfold” value in series [1] was 3 ± 0.51 kcal/mol; in series [2] it was 2.55 ± 0.12 kcal/mol; in series [3], 2.69 ± 0.31 kcal/mol.

Consider “SAGEVELTEDGSLKITETIEVNGLLFKVTVTIDENGNISVSIEKVEVLPPPPPVEIKLEDEEAKKKALKSAG [r5_715_TrROS_Hall]”, for which the results for the “folding stability dG unfold” value in series [1], in series [2] and in series [3] were 0.26 ± 0.28 kcal/mol, 1.61 ± 0.14 kcal/mol and 1.16 ± 0.69 kcal/mol, respectively.

Consider “SAGFLGFGIEPHPNGWFKIEIMVMFPWPGGWFMFSIDITIPIVPIEPPPPPPVVEPKKENGKPKEWKYDSAG [r5_169_TrROS]”, for which the “folding stability dG unfold” value in series [1] worked out at 1.91 ± 0.13 kcal/mol; in series [2], 3.38 ± 0.25 kcal/mol; in series [3] it was 2.74 ± 0.51 kcal/mol.

Take “SAGFSITVDYEPEKGLWTVTFTSPPSTSPLSPEEVKETAREIAEKQGIKYELIEISREGNTWTMTIKVLSAG [r14_556_JUSTAS]”: the “folding stability dG unfold” value came out at 4.25 ± 0.18 kcal/mol in series [1], 5.48 ± 0.082 kcal/mol in series [2] and 5.39 ± 0.13 kcal/mol in series [3].

Take “SAGFTLKLEFPDSTVDVKVTKVDPKNNIIYAEALLPGGEKLTLTYNPETGEIEIEKKKLERTPDGGLEESAG [r14_466_JUSTAS]”: the results for the “folding stability dG unfold” value in series [1], in series [2] and in series [3] were 0.279 ± 0.14 kcal/mol, 1.51 ± 0.14 kcal/mol and 1.13 ± 0.16 kcal/mol, respectively.

Regarding “SAGFVMIKIELENPGNGKERELSIIIPYKSQEDARHIAEEIARELAKNGWKIKKIEVMVMPIPPPPDDPSAG [r5_660_TrROS]”, the results for the “folding stability dG unfold” value in series [1], in series [2] and in series [3] were 3.95 ± 0.12 kcal/mol, 5.29 ± 0.16 kcal/mol and 5.1 ± 0.24 kcal/mol, respectively.

As to “SAGGAEQAREILKEWGFEISEVDPKKKTVQVTPPESGMPISIDVDEPGQIKIKIRMNGKPRTFEIPPSAGGS [r16_197_TrROS]”, the “folding stability dG unfold” value is -0.329 ± 0.24 kcal/mol in series [1], -0.634 ± 0.87 kcal/mol in series [2] and -0.215 ± 0.22 kcal/mol in series [3].

For the sequence “SAGGALANLSPEEIAALLESQGYEVTILEVEEKPGERIVKIRVTVKREDGTVESVEEIELTLPAPDKLSAGG [r13_566_JUSTAS]”, the “folding stability dG unfold” value is 3.7 ± 0.11 kcal/mol in series [1], 2.05 ± 0.03 kcal/mol in series [2] and 2.83 ± 0.095 kcal/mol in series [3].

For the sequence “SAGGALILLFPHPESRTVTALFVHPDGGSETIPFPVPESIDSLEEVADRLLREARERFPVPVEVVVASAGGS [r8_166_TrMRF]”, the results for the “folding stability dG unfold” value in series [1], in series [2] and in series [3] were 0.944 ± 0.012 kcal/mol, 1.37 ± 0.033 kcal/mol and 1.2 ± 0.038 kcal/mol, respectively.

Turning to “SAGGAPSSFSTSSDPDGTQLLVVTEPGSGKPRTVRIPPGLNEAVTIPPSRSVSSVELVRVSPASPALLSAGG [r13_122_JUSTAS]”, the results for the “folding stability dG unfold” value in series [1], in series [2] and in series [3] were -1.16 ± 0.46 kcal/mol, -0.734 ± 0.18 kcal/mol and -0.803 ± 0.14 kcal/mol, respectively.

Consider “SAGGAPSTFTSTSPEGETTVTTTTTYYPETGTTTTTTTTTNPATGTSTTTTTTTPVAPPQPPLLEAGASAGG [r13_694_JUSTAS]”, for which the “folding stability dG unfold” value in series [1] is 0.827 ± 0.056 kcal/mol; in series [2], 1.08 ± 0.047 kcal/mol; in series [3], 1.05 ± 0.067 kcal/mol.

As for “SAGGAPVPVSVTVEIFKRPDGYIIKVNIPSGETKTFSSLEELEKFLKENPSLKITKRTTVPIEKYYESSAGG [r13_730_JUSTAS]”, the “folding stability dG unfold” value in series [1] was 1.94 ± 0.047 kcal/mol; in series [2], 2.83 ± 0.021 kcal/mol; in series [3], 2.67 ± 0.071 kcal/mol.

For “SAGGARREIVIEIEADTLEEALAAAREALAALEDPEDLTVTIVVRLPPPPPPPRPRRVRLDGEEVELRSAGG [r13_718_TrROS_Hall]”, the “folding stability dG unfold” value was -0.384 ± 0.75 kcal/mol in series [1], 1.32 ± 0.19 kcal/mol in series [2] and 1.01 ± 0.22 kcal/mol in series [3].

For “SAGGATIEIKELGRDEDTWYFLVTDPGSAEAVKDFIEKFIPPDYDAKIKILSVDPETGKVTALIEIPGSAGG [r13_491_TrMRF]”, the “folding stability dG unfold” value in series [1] worked out at 2.23 ± 0.11 kcal/mol; in series [2], 2.69 ± 0.14 kcal/mol; in series [3] it was 2.64 ± 0.15 kcal/mol.
